The values that follow come from publication PMC5344419, “The structure of FKBP38 in complex with the MEEVD tetratricopeptide binding-motif of Hsp90” (PLoS ONE, 2017).

First the molecules themselves.
B1: Yeast C-terminal fragment of Hsp90 (yHsp90^546-709) (domain or fragment)
chain: not shown
notes: Expressed from pRSETA as a His-tagged fusion; also called C-terminal domain of yeast Hsp90
B2: FKBP8 (FKBP^1-380), amino acids 1-380, lacking the C-terminal trans-membrane helix (domain or fragment, UniProt Q14318 1-380, looked up)
chain: MASCAEPSEPSAPLPAGVPPLEDFEVLDGVEDAEGEEEEEEEEEEEDDLSELPPLEDMGQPPAEEAEQPGALAREFLAAMEPEPAPAPAPEEWLDILGNGLLRKKTLVPGPPGSSRPVKGQVVTVHLQTSLENGTRVQEEPELVFTLGDCDVIQALDLSVPLMDVGETAMVTADSKYCYGPQGRSPYIPPHAALCLEVTLKTAVDGPDLEMLTGQERVALANRKRECGNAHYQRADFVLAANSYDLAIKAITSSAKVDMTFEEEAQLLQLKVKCLNNLAASQLKLDHYRAALRSCSLVLEHQPDNIKALFRKGKVLAQQGEYSEAIPILRAALKLEPSNKTIHAELSKLVKKHAAQRSTETALYRKMLGNPSRLPAKCPG
notes: FKBP8, amino acids 1-380, lacking the C-terminal trans-membrane helix; numbers count on full-length FKBP8 (Arg 184 is Arg 127 in FKBP38 numbering); Non-cleavable C-terminal His6 tag from pDMXV4; also called FKBP8 isoform; not shown: His6, C-terminal, kept
B3: Hsp90α^464-732, C-terminal domain of human Hsp90α (domain or fragment)
chain: not shown
notes: Hsp90α, human, residues 464-732 (C-terminal domain); Expressed from p2E as a PreScission cleavable His-tagged fusion; also called C-terminal domain of Hsp90α
B4: FKBP38 isoform (FKBP^92-380), immunophilin and TPR domain (domain or fragment, UniProt Q14318 92-380, looked up)
chain: EWLDILGNGLLRKKTLVPGPPGSSRPVKGQVVTVHLQTSLENGTRVQEEPELVFTLGDCDVIQALDLSVPLMDVGETAMVTADSKYCYGPQGRSPYIPPHAALCLEVTLKTAVDGPDLEMLTGQERVALANRKRECGNAHYQRADFVLAANSYDLAIKAITSSAKVDMTFEEEAQLLQLKVKCLNNLAASQLKLDHYRAALRSCSLVLEHQPDNIKALFRKGKVLAQQGEYSEAIPILRAALKLEPSNKTIHAELSKLVKKHAAQRSTETALYRKMLGNPSRLPAKCPG
notes: FKBP8, fragment 92-380 containing both the immunophilin (PPIase) and TPR domain; numbers count on full-length FKBP8; also called FKBP8^92-380; not shown: His6 (from the vector pDMXV4), C-terminal, kept
B5: Hsp90β EDASRMEEVD C-terminal peptide (peptide)
peptide: EDASRMEEVD
notes: the terminal ten amino-acid residues of Hsp90β

Holding throughout (conditions): both partners purified
For assay [1], the target named is B2. Kind of assay: ITC; 700 to 800 μM FKBP construct injected into 50 μM Hsp90 or Hsp70 protein in the cell; ITC200; 20 mM Tris, 300 mM NaCl, 1 mM EDTA pH 7.5. On the technique in general: In ITC the heat of successive injections is recorded.
The next assay addresses T1, Full-length human Hsp90β (human, UniProt P08238 1-724).
T1 construct: Hsp90β, human, full length; Expressed from pRSETA as a His-tagged fusion; also called intact Hsp90β
The assay is described as above.

Assay [2] concerns the target T2, Hsp90β^295-724, middle and C-terminal domain fragment of human Hsp90β (human, UniProt P08238 295-724).
T2 construct: Hsp90β, human, residues 295-724 (middle and C-terminal domain, with the MEEVD motif); Expressed from pRSETA as a His-tagged fusion; also called Hsp90^295-724
The description is as above.

Assay [3] deals with B2. The assay is described as follows: ITC; 2 mM peptide injected into 50 μM FKBP^1-380 in the cell; ITC200; 20 mM Tris, 300 mM NaCl, 1 mM EDTA pH 7.5.

T1 sequence (P08238 whole entry, the tested form may be a part): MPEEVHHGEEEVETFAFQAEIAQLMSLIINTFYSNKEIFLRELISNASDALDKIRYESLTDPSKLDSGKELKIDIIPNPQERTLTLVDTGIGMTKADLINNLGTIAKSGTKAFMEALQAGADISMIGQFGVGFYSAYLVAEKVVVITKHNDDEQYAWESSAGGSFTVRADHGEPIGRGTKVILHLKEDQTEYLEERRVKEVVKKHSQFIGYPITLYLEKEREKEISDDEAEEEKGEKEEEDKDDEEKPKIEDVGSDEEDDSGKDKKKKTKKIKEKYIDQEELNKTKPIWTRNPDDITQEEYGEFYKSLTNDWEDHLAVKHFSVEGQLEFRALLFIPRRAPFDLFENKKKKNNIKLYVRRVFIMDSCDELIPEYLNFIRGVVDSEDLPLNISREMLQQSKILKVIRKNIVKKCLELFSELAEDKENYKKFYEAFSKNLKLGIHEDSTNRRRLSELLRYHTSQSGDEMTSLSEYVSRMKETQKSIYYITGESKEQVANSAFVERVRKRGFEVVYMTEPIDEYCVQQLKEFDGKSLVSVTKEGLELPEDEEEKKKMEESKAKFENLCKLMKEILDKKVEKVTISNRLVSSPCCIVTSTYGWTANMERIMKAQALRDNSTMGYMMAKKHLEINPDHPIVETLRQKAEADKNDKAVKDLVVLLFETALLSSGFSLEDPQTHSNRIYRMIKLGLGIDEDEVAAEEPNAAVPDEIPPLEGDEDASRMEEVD
T2 sequence (P08238 295-724): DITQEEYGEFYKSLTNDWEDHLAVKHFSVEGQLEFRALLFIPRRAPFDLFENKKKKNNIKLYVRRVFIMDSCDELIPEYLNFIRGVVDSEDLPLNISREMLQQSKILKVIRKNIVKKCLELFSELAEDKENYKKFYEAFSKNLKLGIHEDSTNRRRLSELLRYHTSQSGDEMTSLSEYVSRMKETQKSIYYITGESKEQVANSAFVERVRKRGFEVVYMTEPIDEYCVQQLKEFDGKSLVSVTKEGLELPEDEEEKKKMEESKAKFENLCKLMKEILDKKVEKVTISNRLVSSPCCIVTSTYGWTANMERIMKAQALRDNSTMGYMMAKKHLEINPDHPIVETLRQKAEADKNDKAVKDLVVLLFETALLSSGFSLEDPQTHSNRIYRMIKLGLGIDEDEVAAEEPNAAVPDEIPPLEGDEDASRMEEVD

For the molecule B1, in assay [1], binding was characterised by a dissociation constant (Kd) of 2.3 ± 0.2 µM.

For the molecule B2, the Kd (in general, the constant that tells how readily two partners part at equilibrium) with Full-length human Hsp90β was determined as 2.8 ± 0.1 µM; in assay [2], 6.4 ± 0.5 µM. In addition, in the assay with Full-length human Hsp90β, the stoichiometry N (commonly a count of units in the complex or per binding partner) amounted to 1.

Regarding B3, the Kd in assay [1] is 8.3 ± 0.6 µM.

In the case of B4, in the assay with Full-length human Hsp90β, the Kd came to 2.6 ± 0.2 µM and the “stoichiometry N” value is 1.

In turn, GSGPTIEEVD (C-terminal peptide of human Hsp70) [Human Hsp70 GSGPTIEEVD C-terminal peptide] returned a Kd in assay [3] of 147 µM.

In assay [3], B5 showed a Kd of 64.5 ± 3.7 µM.
